Results taken from patent publication US11325952B2, “Light-gated signaling modulation” (Korea University Research and Business Foundation, priority 2016, dated 2022).

Experiments:
[1] = system: hippocampal culture neurons; assay: Cal-Light test in dissociated hippocampal culture neurons (EGFP reporter); format: cell-based, rat
[2] = system: cortical slice culture; assay: Cal-Light test in cortical slice culture (EGFP reporter); format: cell-based; settings: further increase of neuronal activity by bicuculine application
Excerpt: FIG. 18. Cal-Light test in cortical slice culture. AAV expressing Cal-Light constructs and EGFP reporter were infected to cortical slice culture at DIV3 (Days in vitro). […] Examples of action potentials were plotted at the top left panel. Electrical stimulation reliably triggered action potentials measured in layer 2/3 pyramidal neurons. Two days later, slices were fixed and images were taken by confocal microscopy. […] Blue light or high frequency stimuli alone was not able to increase the level of EGFP expression.
[…] Cortical slice culture were made at postnatal day 3 and AAV expressing Cal-Light constructs including an EGFP reporter were infected to slices at DIV 3 (Days in vitro). After 12 days of expression, a bipolar stimulation electrode was placed in layer 2/3. […] This stimulation protocol was repeated 30 times, resulting in triggering about 300 action potentials in total. Two days later, slices were fixed and gene expression pattern was imaged by confocal microscopy.

[3] = system: HEK293T cells; assay: SEAP chemiluminescent assay of BLITz constructs, light-induced gene expression; format: cell-based; settings: for light-induced gene expression: blue light; for background (baseline) gene expression level: dark state
Description: HEK293T cells were grown in high glucose Dulbecco's Modified Eagle Medium (DMEM) (Gibco, CA, USA) containing 10% fetal bovine serum (Cat #10438-018, Gibco) and 1% penicillin-streptomycin (Invitrogen, NY, USA). Cells were incubated at 37° C. and under 10% CO2 conditions. For the experiment, all dishes and coverslip were pre-coated with a 1 mg/ml Poly-D-Lysine hydrobromide (Cat #P0899, Sigma-Aldrich, St. Louis, Mo., USA) solution for 2 hrs. After 0.25% trypsin (Cat #25200, Gibco) treatment for 2 min, detached cells were collected and the total cell numbers were counted. Dissociated cells were plated at 2×10^5 cells per 12 mm coverslip. 24 hrs later, DNA plasmid vectors were transfected using the calcium phosphate transfection kit (Clontech, CA, USA). The mixture of the DNA solution was slowly added into 2× Hepes Buffered Saline. After 1 hr incubation, precipitated solutions were added into each well.
Blue light was illuminated by 465 nm wavelength blue LED array (LED wholesalers, Hayward, Calif., USA) that was controlled by a high-accuracy digital electronic timer (Model 451, GraLab, Centerville, Ohio, USA). The LED array was installed inside the 37° C. and 10% CO2 incubator. One transparent blank plate with 2 cm height was inserted between the LED source and the sample to inhibit potential undesirable heating caused by the direct contact of the LED. In the experimental setup, the power of blue light at the specimen was 1.7 mW, measured by a power meter (PM100D, ThorLabs, Newton, N.J., USA). To make a dark condition, all lights were prevented by wrapping culture plates with an aluminum foil, and all experimental procedures were carried out under dim red light.
For the quantification of gene-expression levels, a secreted embryonic alkaline phosphatase (SEAP) chemiluminescent assay was used. All reagents for the SEAP assay were purchased from InvivoGen (San Diego, Calif., USA). 40 μl of sample was collected from the medium of each well and transferred into 96-wells plate. Samples were pre-heated in a 60° C. incubator for 10 m to inhibit the activity of endogenous alkaline phosphatase. All mixtures were added into a single master tube including SEAP substrates and L-homoarginine. The mixed solutions were carefully added into each sample onto 96-wells plate without bubbles. The chemiluminescence of each sample was measured by a micro-plate reader (SpectraMax Plus 384, Molecular Devices, Sunnyvale, Calif., USA) at 37° C. at 405 nm. Assays were made at every 30 s for 2 hrs. All data and the calculation of Vmax were acquired by a SoftMax Pro 5.4.1 (Molecular Devices).
Thus, to prevent access by TEV protease in the dark state, but to allow complete access upon blue light illumination, the C-terminal region of the Jα-helix on AsLOV2 with the TEVseq was modified (FIG. 1a, b). […]

[4] = system: HEK293T cells; assay: EGFP expression reporter assay of BLITz constructs; format: cell-based; settings: dark vs blue light
Excerpt: FIG. 1: Development of BLITz system. (a) Schematic drawing of BLITz proteins and simple diagram of light-induced gene expression. The major protein body, TM-CIBN-TEV-N-AsLOV2-TEVseq-TetR-VP16 (tTA), is targeted to a membrane with a transmembrane domain (TM). CRY2PHR-TEV-C is localized in the cytosol. Blue light causes interaction of CRY2PHR with CIBN, and TEV-C and TEV-N subsequently interact with each other. At the same time, TEVseq is unmasked due to conformational changes of AsLOV2 Jα-helix. When these two light-dependent processes are satisfied, TEVseq cleaves TetR-VP16, which translocates to the nucleus and causes targeted gene expression. (b) Design of TEVseq insertion into Jα-helix. […]
HEK293T cells were grown in high glucose Dulbecco's Modified Eagle Medium (DMEM) (Gibco, CA, USA) containing 10% fetal bovine serum (Cat #10438-018, Gibco) and 1% penicillin-streptomycin (Invitrogen, NY, USA). […] After 0.25% trypsin (Cat #25200, Gibco) treatment for 2 min, detached cells were collected and the total cell numbers were counted. […]
Blue light was illuminated by 465 nm wavelength blue LED array (LED wholesalers, Hayward, Calif., USA) that was controlled by a high-accuracy digital electronic timer (Model 451, GraLab, Centerville, Ohio, USA). […] In the experimental setup, the power of blue light at the specimen was 1.7 mW, measured by a power meter (PM100D, ThorLabs, Newton, N.J., USA). […]

## NC1=N[C@H](O)[C@H]2[C@H]3O[C@]4(O)O[C@@H]([C@@H](O)[C@@]2(N1)[C@@H]4O)[C@]3(O)CO [TTX, tetrodotoxin]
[1]
  reporter EGFP gene expression level: kept low

## CN1CCc2cc3c(cc2[C@H]1[C@@H]1OC(=O)c2c1ccc1c2OCO1)OCO3 [bicuculine]
[2]
  EGFP expression: significant increase

B1: BLITz-1: AsLOV2 Jα-helix C-terminal deletion variant with inserted TEV cleavage sequence, in TM-CIBN-TEV-N-AsLOV2-TEVseq-tTA fusion protein (protein)
chain: EFLATTLERIEKNFVITDPRLPDNPIIFASDSFLQLTEYSREEILGRNCRFLQGPETDRATVRKIRDAIDNQTEVTVQLINYTKSGKKFWNVFHLQPMRDYKGDVQYFIGVQLDGTERLHGAAEREAVCLIKKTAFQIA
modifications: BLITz-1 AsLOV2 (1-139 A.A.)
[3]
  light-induced gene expression: high
  background (baseline) gene expression level: completely abolished
[4]
  EGFP signals: detected only when blue light was illuminated

B2: BLITz-6: AsLOV2 Jα-helix C-terminal deletion variant with TEVseq; selected for the neuromodulation mapping system (protein)
chain: EFLATTLERIEKNFVITDPRLPDNPIIFASDSFLQLTEYSREEILGRNCRFLQGPETDRATVRKIRDAIDNQTEVTVQLINYTKSGKKFWNVFHLQPMRDYKGDVQYFIGVQLDGTERLHGAAEREAVCLIKKTAFQI
modifications: BLITz-6 AsLOV2 (1-138 A.A.)
[3]
  light-induced gene expression: high
  background (baseline) gene expression level: completely abolished
[4]
  EGFP signals: detected only when blue light was illuminated
